Test results from patent US20230399395A1.

What was measured:
[1] = target: IL5 (human) (UniProt P05113); test: ELISA
[2] = target: IL5 (human) (UniProt P05113); test: flow cytometry blocking IL5/IL5R
[3] = target: IL5 (human) (UniProt P05113); test: flow cytometry blocking IL5/IL5R; remark: listed apart in the source
[4] = target: IL5 (human) (UniProt P05113); test: cell-based or functional assay
[5] = target: IL5 (human) (UniProt P05113); test: Flow cytometry, blocking of IL5-biotin binding to HEK293F cells expressing IL5R

Substance: Control Ab Nucala
- EC50 [1]: 0.0563 µg/mL
- IC50 [2]: 2.96 µg/mL
- IC50 [3]: 2.36 µg/mL

Substance: Nucala (antibody)
- IC50 of inhibition of the proliferation of TF-1 cells induced by IL5 (CCK8, OD450) [4]: 0.178 nM
- IC50 [5]: 2.04 µg/mL
